{"source": "patent US20230383007A1", "about": "(BIOSION, published 2023)", "binders": {"B1": {"name": "single domain antibody 01-9F (VHH)", "VHH": "QVQLVESGGGSVQAGGSLRLSCVVSGLPYERYCVAWFRQGPGKEREGVARILSDGTTSYSDSVKGRFTISKDNAKNTLYLQMNSLKSEDTATYYCAAEAFRPFTPSDGDCTTVLGIDYWGKGTPVTVSS"}}, "key": {"[1]": {"biological_target": "T1, human TROP2-his protein (human, UniProt P09758 27-274)", "T1 construct": "also called biotin labeled human TROP2-his protein", "T1 sequence": "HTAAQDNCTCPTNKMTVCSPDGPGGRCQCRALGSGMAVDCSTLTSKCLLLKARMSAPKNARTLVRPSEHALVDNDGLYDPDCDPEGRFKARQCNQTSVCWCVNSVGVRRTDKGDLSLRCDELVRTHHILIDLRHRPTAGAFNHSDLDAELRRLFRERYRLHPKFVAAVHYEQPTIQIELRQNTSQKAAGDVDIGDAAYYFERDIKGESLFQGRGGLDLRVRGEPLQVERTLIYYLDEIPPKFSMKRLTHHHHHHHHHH", "assay": "SPR Biacore; antibody captured on anti-human IgG chip, 40 nM human TROP2-his as analyte", "description": "(§1) The purified anti-TROP2 mouse monoclonal antibodies (mAbs) were characterized for binding affinity and binding kinetics by Biacore T200 system (GE healthcare, Pittsburgh, PA, USA). Briefly, goat anti-human IgG (GE healthcare, Cat #BR100839, Human Antibody Capture Kit) was covalently linked to a CM5 chip (carboxy methyl dextran coated chip from GE healthcare #BR100530) via primary amines, using a standard amine coupling kit (GE healthcare, Pittsburgh, PA, USA) provided by Biacore. Un-reacted moieties on the chip (biosensor) surface were blocked with ethanolamine. The anti-TROP2 antibodies of the disclosure and the benchmark at the concentration of 2 μg/ml were respectively flowed onto the chip at a flow rate of 10 μL/min. Then, serially diluted human TROP2-his protein (prepared in-house with SEQ ID NO: 16), or cynomolgus TROP2-his protein (prepared in-house with SEQ ID NO: 19), 2-fold dilution in HBS-EP⁺ buffer (provided by Biacore) starting at 160 nM, were flowed onto the chip at a flow rate of 30 μL/min. The antigen-antibody association kinetics was followed for 2 minutes and the dissociation kinetics was followed for 10 minutes. The association and dissociation curves were fit to a 1:1 Langmuir binding model using BIAcore evaluation software.\nFor the BIAcore test, cell supernatants containing the 01-9F-Fc variants were respectively flowed onto the chip instead of the purified anti-TROP2 antibodies, at a flow rate of 10 μL/min, and 40 nM human TROP2-his proteins (prepared in-house with SEQ ID NO: 16) in HBS-EP⁺ buffer (provided by Biacore), instead of serially diluted human TROP2-his proteins, were flowed onto the chip at a flow rate of 30 μL/min."}, "[2]": {"biological_target": "T1, human TROP2-his protein", "assay": "SPR Biacore T200; antibody captured on anti-human IgG chip, 40 nM human TROP2-his as analyte", "description": "as §1\nFor the BIAcore test, cell supernatants containing humanized 01-9F-CDR-V11 antibodies were respectively flowed onto the chip at a flow rate of 10 μL/min, and 40 nM human TROP2-his protein (prepared in-house with SEQ ID NO: 16) in HBS-EP⁺ buffer (provided by Biacore) were flowed onto the chip at a flow rate of 30 μL/min."}, "[3]": {"biological_target": "T1, human TROP2-his protein", "assay": "competitive ELISA: antibody pre-mixed with biotin labeled human TROP2-his, added to plate coated with the benchmark (sacituzumab analog); unit taken from the x axis (nM)"}, "[4]": {"biological_target": "T1, human TROP2-his protein", "assay": "indirect ELISA, plate coated with 1 ug/ml TROP2-his; bacterial culture supernatant", "experimental": "(§2) ELISA plates were coated with 100 μl 1 μg/ml human TROP2-his protein (in house made with SEQ ID NO: 16), or 1 μg/ml cynomolgus TROP2-his protein (in house made with SEQ ID NO: 19) in carbonate/bicarbonate buffer (pH 9.6) overnight at 4° C., washed once with wash buffer (PBS+0.05% v/v Tween-20, PBST) and then blocked with 200 μl/well blocking buffer (5% w/v non-fatty milk in PBST) for 2 hours at 37° C. Plates were washed 4 times, and respectively incubated with 100 μl bacterial culture supernatant, and sacituzumab (used as the benchmark, also referred to as BM or BM1 hereinafter, in house made with heavy chain and light chain amino acid sequences set forth in SEQ ID NOs: 17 and 18) in 5% w/v non-fatty milk in PBST at 200 ng/ml, for 40 minutes at 37° C. The plates were washed 4 times, and incubated with THE™ HA Tag Antibody [HRP], mAb, Mouse Antibody (1:5000 dilution in PBST, GenScript, Cat #A01296, 100 μl/well, for plates with bacterial culture supernatans of the disclosure) or Peroxidase AffiniPure F(ab′)₂ Fragment Goat Anti-Human IgG, Fey fragment specific (Jackson Immunoresearch, Cat #109-036-098, for plates with the benchmark), for 40 minutes at 37° C. After a final wash, plates were incubated with 100 μl/well ELISA substrate TMB (Innoreagents, Cat #TMB-S-002) at room temperature. The reaction was stopped in 3-10 minutes with 50 μl/well 1M H₂SO₄, and the absorbance of each well was read on a microplate reader using dual wavelength mode with 450 nm for TMB and 630 nm as the reference wavelength. When the OD of a sample well was 2 times higher than the OD of the blank well, the sample can be determined as positive."}, "[5]": {"biological_target": "T2, cynomolgus TROP2-his protein (cynomolgus, UniProt P09758 27-272 (human entry), limits assumed)", "T2 construct": "also called Cyno TROP2-his; Cynomolgus monkey TROP2-his protein", "T2 chain": "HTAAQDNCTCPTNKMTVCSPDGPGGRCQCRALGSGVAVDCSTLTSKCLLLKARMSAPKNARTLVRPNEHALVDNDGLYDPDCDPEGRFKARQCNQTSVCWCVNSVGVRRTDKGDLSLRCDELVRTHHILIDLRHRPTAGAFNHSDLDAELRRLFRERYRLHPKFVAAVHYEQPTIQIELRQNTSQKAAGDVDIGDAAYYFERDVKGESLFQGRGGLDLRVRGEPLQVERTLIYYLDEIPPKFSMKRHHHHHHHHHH", "assay": "indirect ELISA, plate coated with 1 ug/ml TROP2-his; bacterial culture supernatant", "experimental": "as §2"}}, "data": [{"binder": "B1", "values": [{"measurement": "Kd", "setting": "[1]", "value": 0.202, "unit": "nM"}, {"measurement": "koff", "setting": "[1]", "value": 0.000101, "unit": "s⁻¹"}, {"measurement": "kon", "setting": "[1]", "value": 502000, "unit": "M⁻¹ s⁻¹"}, {"measurement": "Kd", "setting": "[2]", "value": 0.188, "unit": "nM"}, {"measurement": "koff", "setting": "[2]", "value": 0.000224, "unit": "s⁻¹"}, {"measurement": "kon", "setting": "[2]", "value": "1.19e+06", "unit": "M⁻¹ s⁻¹"}, {"measurement": "IC50", "setting": "[3]", "value": 0.247, "unit": "nM"}, {"measurement": "Indirect ELISA OD (450-630)", "setting": "[4]", "value": "0.97 OD (450-630)"}, {"measurement": "Indirect ELISA OD (450-630)", "setting": "[5]", "value": "0.59 OD (450-630)"}]}]}
